According to the Human Domainome abundance scans (Beltran et al. 2025):
± gives the uncertainty stated by the source.

B1: POU domain, class 3, transcription factor 4, residues 280 to 335; numbered along this chain, P49335 (parent)
chain: KKRTSIEVSVKGVLETHFLKCPKPAAQEISSLADSLQLEKEVVRVWFCNRRQKEKR

Variants of: B1
Assay: abundance fitness (aPCA) (normalised: wild type 0, dead -1); higher = more abundant; growth selection in yeast, the domain comes from the species named
Conditions: Homo sapiens

Abundance fitness, by site and new letter:
E7: Y -0.285 ± 0.099, Q 0.013 ± 0.14, A -0.082 ± 0.11, K 0.271 ± 0.15, T 0.526 ± 0.087, G 0.381 ± 0.12, P 0.607 ± 0.084, V -0.362 ± 0.12, R -0.093 ± 0.095, D 0.327 ± 0.14, M -0.191 ± 0.17
F47: H -0.571 ± 0.38, G -0.745 ± 0.18
R51: E -0.258 ± 0.16, W -0.221 ± 0.17, V -0.424 ± 0.13, L -0.305 ± 0.14, C -0.506 ± 0.24, Y -0.193 ± 0.47, S -0.549 ± 0.18
R44: P -0.865 ± 0.26, A -0.193 ± 0.13, V -0.84 ± 0.16, E 0.182 ± 0.18, M -0.539 ± 0.22, N 0.059 ± 0.23, W -0.68 ± 0.2
R56: L -0.075 ± 0.19, M 0.123 ± 0.24, T 0.002 ± 0.39
V42: G -0.648 ± 0.17, Q -0.254 ± 0.24, E 0.185 ± 0.2, R -0.689 ± 0.14, M -0.401 ± 0.2, I -0.49 ± 0.32, L -0.122 ± 0.13
C21: G -0.724 ± 0.15, Y -0.898 ± 0.25, D 0.059 ± 0.21, H -0.533 ± 0.2, W -0.846 ± 0.22, R -0.742 ± 0.15, T -0.336 ± 0.17
P24: G -0.842 ± 0.4, L -0.753 ± 0.26, R -0.405 ± 0.22
K40: H 0.099 ± 0.22, A 0.026 ± 0.15, D -0.287 ± 0.27, V 0.097 ± 0.14, T 0.181 ± 0.16
C48: E 0.549 ± 0.19, A -0.051 ± 0.18, S 0.078 ± 0.13, T -0.187 ± 0.21, D 0.023 ± 0.25, K 0.282 ± 0.24, N -0.113 ± 0.22, P -0.762 ± 0.21, H 0.068 ± 0.28, W -0.073 ± 0.16, I 0.155 ± 0.2
E15: F -0.681 ± 0.21, W -1.04 ± 0.24, H -0.873 ± 0.31, P -0.659 ± 0.21, S -0.845 ± 0.17
K1: S -0.132 ± 0.24, G -0.243 ± 0.4, E -0.049 ± 0.3, W 0.033 ± 0.42
A26: H -0.237 ± 0.23, E 0.385 ± 0.15, N -0.043 ± 0.22, V -0.254 ± 0.13, L -0.07 ± 0.11, T -0.017 ± 0.17
E54: C -0.897 ± 0.3, T -1.06 ± 0.4, H -0.906 ± 0.33, K -0.591 ± 0.46, L -0.787 ± 0.16
L38: P -0.932 ± 0.29, V -0.269 ± 0.15, E -0.729 ± 0.29, A -0.744 ± 0.23, S -0.815 ± 0.18
S31: M 0.096 ± 0.15, V 0.013 ± 0.17, F -0.059 ± 0.16, E -0.058 ± 0.22, N 0.182 ± 0.22, P -0.913 ± 0.25, W -0.467 ± 0.2, Q -0.031 ± 0.16, C -0.414 ± 0.32, K 0.022 ± 0.18
K23: R 0.118 ± 0.12, Q 0.064 ± 0.18, G -0.664 ± 0.14, C 0.218 ± 0.16, M 0.149 ± 0.18, F 0.137 ± 0.17, H 0.186 ± 0.22, W 0.037 ± 0.18, T 0.237 ± 0.15
K11: D 0.119 ± 0.41, H -0.207 ± 0.49
A33: R -0.667 ± 0.15, M -0.836 ± 0.38, P -0.907 ± 0.3, N -0.964 ± 0.38, E -0.634 ± 0.26, F -0.773 ± 0.3, W -0.835 ± 0.27
R50: G -0.778 ± 0.14, N -0.771 ± 0.41, E -0.814 ± 0.21
P22: R -0.37 ± 0.15, K -0.315 ± 0.21, L -0.783 ± 0.15, V -0.469 ± 0.13, Q 0.208 ± 0.19, F -0.732 ± 0.23, G -0.909 ± 0.19, W -0.166 ± 0.22
I6: F -0.397 ± 0.099, E -0.303 ± 0.2, S -0.152 ± 0.086, R -0.292 ± 0.12
K55: Y -0.259 ± 0.24, R -0.027 ± 0.14, C -0.017 ± 0.21, I -0.604 ± 0.27, P -0.764 ± 0.33, F -0.194 ± 0.32, S -0.368 ± 0.17, E -0.259 ± 0.22
V10: Y -0.503 ± 0.36, I 0.08 ± 0.2, N -0.279 ± 0.31, T -0.21 ± 0.3, Q -0.193 ± 0.23, L -0.472 ± 0.26
R3: M 0.011 ± 0.23, L 0.306 ± 0.12, W -0.706 ± 0.22, Y 0.069 ± 0.18, F -0.226 ± 0.19, C 0.174 ± 0.14, Q -0.354 ± 0.21
V8: A 0.354 ± 0.14, N 1.06 ± 0.44, Y 0.231 ± 0.4, K 0.842 ± 0.22, I 0.04 ± 0.14, M 0.527 ± 0.22, D 0.006 ± 0.31, R 0.362 ± 0.12, W -0.045 ± 0.16, C -0.326 ± 0.23, P 0.736 ± 0.24
E39: H -0.551 ± 0.43, W -0.746 ± 0.21, S -0.074 ± 0.12, A -0.515 ± 0.21
